The values that follow come from paper PMC8931434.

B1: CerS2-HA [not stated] / FATP2-Flag [human] (parent)
chain 1: MLQTLYDYFWWERLWLPVNLTWADLEDRDGRVYAKASDLYITLPLALLFLIVRYFFELYVATPLAALLNIKEKTRLRAPPNATLEHFYLTSGKQPKQVEVELLSRQSGLSGRQVERWFRRRRNQDRPSLLKKFREASWRFTFYLIAFIAGMAVIVDKPWFYDMKKVWEGYPIQSTIPSQYWYYMIELSFYWSLLFSIASDVKRKDFKEQIIHHVATIILISFSWFANYIRAGTLIMALHDSSDYLLESAKMFNYAGWKNTCNNIFIVFAIVFIITRLVILPFWILHCTLVYPLELYPAFFGYYFFNSMMGVLQLLHIFWAYLILRMAHKFITGKLVEDERSDREETESSEGEEAAAGGGAKSRPLANGHPILNNNHRKND
chain 2: not shown

The experiment covers variants of B1. Nature of the experiment: co-immunoprecipitation (anti-HA IP, anti-Flag western blot, quantified). The following applies: with FATP2-Flag [human]; CerS2-/- Hek293T cells, 48 h after transfection; three independent experiments; read off a plot. A general note: Immunoblotting shows a protein as a band on a membrane.
As for chain 1 H212A H213A, the response worked out at 1.4.

Regarding chain 1 S341A T346A S348A S349A, the response came to 6.2.
